Test [1] has as its target T1, VPS4A MIT domain, recombinant (His6-VPS4 MIT) (UniProt Q9UN37 2-80).
T1 sequence (looked up): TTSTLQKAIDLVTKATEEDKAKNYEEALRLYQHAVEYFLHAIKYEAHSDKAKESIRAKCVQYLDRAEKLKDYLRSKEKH
Kind of test: SPR.

Test [2] deals with T2, human spastin MIT domain (residues 112-195), purified (human, UniProt Q9UBP0-1 112-195).
T2 sequence (looked up): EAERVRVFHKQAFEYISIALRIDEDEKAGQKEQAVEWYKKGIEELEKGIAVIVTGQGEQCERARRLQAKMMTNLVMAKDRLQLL
Kind of test: SPR.

The values below come from article PMC2593743 (Nature structural & molecular biology, 2008).

B1: polyhistidine-tagged CHMP1B-CTR (residues 126-199), wild type (domain or fragment, human, UniProt Q7LBR1 126-199, looked up)
chain: DVQTQQMEDTMSSTTTLTTPQNQVDMLLQEMADEAGLDLNMELPQGQTGSVGTSVASAEQDELSQRLARLRDQV
For orientation: Kd means a measure of binding affinity in units of concentration. Take B1: the figures for the Kd in test [1] and in test [2] were 33 µM and 12 µM, respectively.
